Source: US20200399358A1 (Sanofi, published 2020)

Columns and labels:
murine TGF-β1 [1] = biological target: T1, murine TGF-β1 (mouse, UniProt P04202 279-390); experiment: cell-based or functional assay
human TGF-β3 [2] = biological target: T2, human TGF-β3 (human, UniProt P10600 301-412); experiment: cell-based or functional assay
T2 sequence (looked up): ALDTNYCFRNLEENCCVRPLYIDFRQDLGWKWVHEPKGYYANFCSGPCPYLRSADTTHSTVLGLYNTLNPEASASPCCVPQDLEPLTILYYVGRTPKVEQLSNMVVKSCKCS

murine TGF-β2 [3] = biological target: T3, murine TGF-β2 (mouse, UniProt P27090 303-414); experiment: cell-based or functional assay
T3 sequence (looked up): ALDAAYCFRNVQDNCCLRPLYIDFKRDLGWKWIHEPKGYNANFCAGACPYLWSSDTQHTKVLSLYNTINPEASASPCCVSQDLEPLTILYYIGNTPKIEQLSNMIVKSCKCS

human TGF-β2 [4] = biological target: T4, human TGF-β2 (human, UniProt P61812 303-414); experiment: cell-based or functional assay
T4 sequence (looked up): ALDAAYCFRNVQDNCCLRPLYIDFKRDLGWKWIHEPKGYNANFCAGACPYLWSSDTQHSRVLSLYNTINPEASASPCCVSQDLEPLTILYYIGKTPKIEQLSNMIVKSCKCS

human TGF-β3 [5] = biological target: T2, human TGF-β3; experiment: SPR (Biacore T200), Ab1 injected over immobilized TGF-β homodimer, 1:1 model
Method: (§1) The affinity of Ab1 for all human and murine TGF-β isoforms was determined by surface plasmon resonance on a Biacore T200 Biosensor instrument (GE Healthcare) using a dextran-coated carboxy-methylated (CM5) series S chip. Ab1 at a series of concentrations (1.11, 3.33, 10, and 30 nM) was injected onto immobilized recombinant TGF-β to measure the binding interaction in real time. The TGF-β homodimers were immobilized at a low density to reduce avidity effects. Injections were performed in triplicate and the binding assay was repeated three times. The data from the kinetic experiments were processed using the Biacore T200 Biaevaluation v2.0 software. Resulting sensorgrams were zeroed, aligned, double referenced, and cropped for curve fitting analysis using a 1:1 binding model to determine association rate constant (kₐ), dissociation rate constant (kd), and equilibrium dissociation constant (KD).

human TGF-β1 [6] = biological target: T5, human TGF-β1 (human, UniProt P01137 279-390); experiment: as above
T5 construct: mature; Immobilized as homodimer in SPR; also called hTGF-β1
T5 sequence (P01137 279-390 limits assumed): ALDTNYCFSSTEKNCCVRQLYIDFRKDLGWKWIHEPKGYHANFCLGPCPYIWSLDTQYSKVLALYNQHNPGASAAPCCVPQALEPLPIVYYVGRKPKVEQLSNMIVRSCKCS
Method: as §1

murine TGF-β2 [7] = biological target: T3, murine TGF-β2; experiment: as above
Method: as §1

human TGF-β2 [8] = biological target: T4, human TGF-β2; experiment: as above
Method: as §1

murine TGF-β1 [9] = biological target: T1, murine TGF-β1; experiment: as above
Method: as §1

human TGF-β1 [10] = biological target: T5, human TGF-β1; experiment: cell-based or functional assay
human TGF-β1 [11] = biological target: T5, human TGF-β1; experiment: cell-based or functional assay; remark: listed apart in the source

T1 sequence (P04202 279-390 limits assumed): as the sequence (P01137 279-390 limits assumed) above, with A75S counted along it

B1: Ab1 (antibody, human IgG4 S228P, kappa)
heavy: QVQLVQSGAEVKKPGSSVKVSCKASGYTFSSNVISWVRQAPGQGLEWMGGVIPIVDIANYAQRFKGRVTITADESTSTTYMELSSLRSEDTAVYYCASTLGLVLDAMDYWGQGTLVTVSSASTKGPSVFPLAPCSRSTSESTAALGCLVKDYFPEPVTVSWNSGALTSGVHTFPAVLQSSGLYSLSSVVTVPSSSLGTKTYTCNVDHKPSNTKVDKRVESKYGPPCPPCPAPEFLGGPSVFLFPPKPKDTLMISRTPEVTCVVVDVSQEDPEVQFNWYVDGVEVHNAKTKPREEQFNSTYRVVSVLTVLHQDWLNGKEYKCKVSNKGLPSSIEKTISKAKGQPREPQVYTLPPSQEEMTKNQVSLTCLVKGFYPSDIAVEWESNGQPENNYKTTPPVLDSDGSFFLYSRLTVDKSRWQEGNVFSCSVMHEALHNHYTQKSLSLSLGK
light: ETVLTQSPGTLSLSPGERATLSCRASQSLGSSYLAWYQQKPGQAPRLLIYGASSRAPGIPDRFSGSGSGTDFTLTISRLEPEDFAVYYCQQYADSPITFGQGTRLEIKRTVAAPSVFIFPPSDEQLKSGTASVVCLLNNFYPREAKVQWKVDNALQSGNSQESVTEQDSKDSTYSLSSTLTLSKADYEKHKVYACEVTHQGLSSPVTKSFNRGEC
notes: Human IgG4 with proline at position 228 (EU numbering); also called anti-TGF-β antibody Ab1
- EC50 (read off the curve); neutralisation, Mv 1 Lu proliferation with 1 ng/ml TGF-β (murine TGF-β1 [1]): ~0.6 µg/mL
- EC50 (read off the curve); neutralisation, Mv 1 Lu proliferation with 1 ng/ml TGF-β (human TGF-β3 [2]): ~2 µg/mL
- EC50 (read off the curve); neutralisation, Mv 1 Lu proliferation with 1 ng/ml TGF-β (murine TGF-β2 [3]): ~9 µg/mL
- EC50 (read off the curve); neutralisation, Mv 1 Lu proliferation with 1 ng/ml TGF-β (human TGF-β2 [4]): ~4 µg/mL
- Kd (human TGF-β3 [5]): 1.65 nM
- koff (human TGF-β3 [5]): 0.000372 s⁻¹
- kon (human TGF-β3 [5]): 223000 M⁻¹ s⁻¹
- Kd (human TGF-β1 [6]): 1.48 nM
- koff (human TGF-β1 [6]): 0.000343 s⁻¹
- kon (human TGF-β1 [6]): 311000 M⁻¹ s⁻¹
- Kd (murine TGF-β2 [7]): 1.88 nM
- koff (murine TGF-β2 [7]): 0.000645 s⁻¹
- kon (murine TGF-β2 [7]): 348000 M⁻¹ s⁻¹
- Kd (human TGF-β2 [8]): 3 nM
- koff (human TGF-β2 [8]): 0.000823 s⁻¹
- kon (human TGF-β2 [8]): 286000 M⁻¹ s⁻¹
- Kd (murine TGF-β1 [9]): 2.8 nM
- koff (murine TGF-β1 [9]): 0.000835 s⁻¹
- kon (murine TGF-β1 [9]): 298000 M⁻¹ s⁻¹
- fold change of luciferase activity against isotype control Ab (639440 RLU) (human TGF-β1 [10]): 1.45 fold
- fold change of luciferase activity against no Ab control (638866 RLU) (human TGF-β1 [10]): 1.45 fold

B2: fresolimumab (antibody, human IgG4, kappa)
heavy: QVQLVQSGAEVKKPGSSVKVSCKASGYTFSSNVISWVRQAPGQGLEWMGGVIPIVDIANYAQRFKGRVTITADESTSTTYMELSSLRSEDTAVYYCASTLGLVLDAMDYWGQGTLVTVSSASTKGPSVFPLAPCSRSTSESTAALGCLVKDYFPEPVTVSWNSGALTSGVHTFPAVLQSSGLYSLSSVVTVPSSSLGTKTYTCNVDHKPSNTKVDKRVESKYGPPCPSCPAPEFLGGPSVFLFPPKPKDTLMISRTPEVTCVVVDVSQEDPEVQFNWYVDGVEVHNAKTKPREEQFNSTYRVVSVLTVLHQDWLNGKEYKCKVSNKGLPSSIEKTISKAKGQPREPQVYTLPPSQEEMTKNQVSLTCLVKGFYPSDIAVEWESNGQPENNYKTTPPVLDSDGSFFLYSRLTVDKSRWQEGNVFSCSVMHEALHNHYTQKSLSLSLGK
light: ETVLTQSPGTLSLSPGERATLSCRASQSLGSSYLAWYQQKPGQAPRLLIYGASSRAPGIPDRFSGSGSGTDFTLTISRLEPEDFAVYYCQQYADSPITFGQGTRLEIKRTVAAPSVFIFPPSDEQLKSGTASVVCLLNNFYPREAKVQWKVDNALQSGNSQESVTEQDSKDSTYSLSSTLTLSKADYEKHKVYACEVTHQGLSSPVTKSFNRGEC
- EC50 (read off the curve); neutralisation, Mv 1 Lu proliferation with 1 ng/ml TGF-β (murine TGF-β1 [1]): ~0.6 µg/mL
- EC50 (read off the curve); neutralisation, Mv 1 Lu proliferation with 1 ng/ml TGF-β (human TGF-β3 [2]): ~2 µg/mL
- EC50 (read off the curve); neutralisation, Mv 1 Lu proliferation with 1 ng/ml TGF-β (murine TGF-β2 [3]): ~9 µg/mL
- EC50 (read off the curve); neutralisation, Mv 1 Lu proliferation with 1 ng/ml TGF-β (human TGF-β2 [4]): ~5 µg/mL

B3: 1D11 (antibody, mouse IgG1, kappa, V domains shown)
VH: HVQLQQSGPELVRPGASVKLSCKASGYIFITYWMNWVKQRPGQGLEWIGQIFPASGSTNYNEMFEGKATLTVDTSSSTAYMQLSSLTSEDSAVYYCARGDGNYALDAMDYWGQGTSVTVSS
VL: NIVLTQSPASLAVSLGQRATISCRASESVDSYGNSFMHWYQQKSGQPPKLLIYLASNLESGVPARFSGSGSRTDFTLTIDPVEADDAATYYCQQNNEDPLTFGAGTKLELKR
- EC50 (read off the curve); neutralisation, Mv 1 Lu proliferation with 1 ng/ml TGF-β (murine TGF-β1 [1]): ~4 µg/mL
- EC50 (read off the curve); neutralisation, Mv 1 Lu proliferation with 1 ng/ml TGF-β (human TGF-β3 [2]): ~0.4 µg/mL
- EC50 (read off the curve); neutralisation, Mv 1 Lu proliferation with 1 ng/ml TGF-β (human TGF-β2 [4]): ~6 µg/mL
- EC50 (read off the curve); neutralisation, Mv 1 Lu proliferation with 1 ng/ml TGF-β (human TGF-β1 [11]): ~7 µg/mL
